Reference: the Human Domainome abundance scans (Beltran et al. 2025)

B1: Zinc finger homeobox protein 4, residues 2183 to 2238; numbered along this chain, Q86UP3 (parent)
chain: SSRTRFTDYQLRVLQDFFDTNAYPKDDEIEQLSTVLNLPTRVIVVWFQNARQKARK

Variants of: B1
Assay: abundance fitness (aPCA) (normalised: wild type 0, dead -1); higher = more abundant; growth selection in yeast, the domain comes from the species named
Conditions: Homo sapiens

Abundance fitness, by site and new letter:
V44: I 0.05; S 0.008; Y -0.223; N 0.002; C 0.028; D -0.064; W -0.253; R -0.099; P -0.356; A -0.067; K -0.22; M -0.136; T -0.094; G -0.059; Q -0.052; L 0.042; E 0.125; H -0.027
Q48: V -0.061; G -0.177; C -0.051; W -0.262; M -0.278; T -0.082; D -0.021; A 0.017; S -0.161; L -0.441; I -0.281; N -0.132; E -0.134; K -0.434; H -0.418; P -1.11; R -0.106
L36: E -1.19; D -0.933; Y -0.8; M -0.157; V 0.03; K -0.794; A -0.098; G -0.318; T 0.045; R -0.811; F -0.407; N -0.801; W -0.842; C 0.008; Q -0.877; H -0.701
T40: S -0.213; P -0.254; N -0.546; I 0.591
R41: K 0.033; V -0.008; D 0.204; M -0.081; Y 0.017; Q 0; N 0.103; T 0.06; H -0.196; A 0.069; P -0.143; E -0.181; S 0.083; L -0.059; C -0.002; W -0.335
W46: R -0.344; L -0.691; T -0.972; P -0.656; G -0.559; C -0.366; M -0.864; E -0.396; A -0.669; V -0.803; S -0.403
Q31: H -0.263; N -0.444; P -0.343; M -0.212; K 0.037; W -0.184; I -0.316; R -0.023; Y -0.085; T -0.252; F -0.028; L -0.278; C -0.221; S -0.042; G -0.098; V -0.206; A -0.188
V42: K -0.236; T 0.043; R -0.2; L -0.155; I 0.043; W -0.039; E 0.23; N -0.345; A -0.093; F -0.415; Y -0.18; D 0.141; S -0.077; P -0.194; G -0.065; C -0.263; Q -0.143; H 0.03
V45: S 0.072; D 0.528; I -0.175; H -0.298; K -0.26; A -0.09; P -0.245; R -0.335; L 0.007; Q -0.242; N -0.402; E -0.049; Y -0.149; G 0.047
A50: I -0.396; D -0.57; F -0.054; E -0.116; C 0.045; H -0.394
L32: D -0.531; E -0.723; F -0.207; S -0.924; Q -0.751; T -1.05; K -0.735; N -0.683; W -0.399; V -0.235; I -0.156; G -0.973; M -0.019; Y -0.118; A -0.659; C -0.548; P -0.797; H -1.12; R -0.861
S33: H -0.003; P -0.675; F -0.897; L -0.946; Y -0.749; D -0.884; N -0.257; E -0.209; V -0.595; I -1.04; G -0.23; R -0.486; K -0.82; Q -0.134; C -0.357; M -0.35; T -0.005
N49: G -0.011; C -0.252; A -0.418; P -0.862; M -0.168; K -0.153; Y -0.246; I -0.127; D 0.108; Q -0.355; T 0.073; W -0.352; H -0.077; L -0.17; E 0.032; V -0.261; F 0.005
I43: E -0.69; R -1; W -1.07; P -0.869; L -0.059; M -0.394; Q -0.964; C -0.193; D -0.881; T 0.032; G -1.01; S -0.766; A -0.259; V -0.12; H -1.18; F -0.412; K -1.22; N -1.01
T34: S -0.066; M -0.145; F 0.062; L -0.004; R -0.069; D -0.162; C -0.106; Y -0.061; G -0.134; N -0.183; W -0.244; H 0.049; P -0.347; K 0.045; A -0.049; Q -0.128; E -0.165; I -0.256
P39: C -0.063; N -0.127; F -1.1; D 0.093; T -0.041; L -0.962; R -0.097; S -0.062; Y -0.701; G 0.014; A -0.153; V -0.766; H 0.154; Q -0.095; W -1.22; K -0.245; M -0.69; E -0.037
L38: E -0.366; Y -0.431; T -0.007; Q -0.131; S -0.275; F -0.277; K -0.357; C 0.018; H -0.305; N -0.914; A -0.019; G -1.04; D -0.709; P -0.913; M -0.067; V -0.051; I -0.061; R -0.416; W -0.735
V35: I -0.207; T 0.108; N -0.427; R 0.06; C 0.02; L -0.004; P -0.297; E -0.153; H -0.006; F -0.206; D -0.222; G 0.043; S 0.03; Q 0.004; K 0.157; M 0.058; Y -0.506; W -0.202
F47: G -0.342; H -0.6; I 0.044; N -0.778; E -0.967; L -0.016; M -0.334; A -0.406; V -0.264; Y -0.207; S -0.507; P -1.06; D -0.4; K -0.694; R -0.801; C -0.471; T -0.893; W -0.452; Q -0.829
E30: T -0.046; R 0.031; Y -0.366; P -0.463; K -0.154; V -0.119; W -0.366; I -0.221; D 0.08; Q 0.175; F -0.132; G 0.059; H 0.008; M 0.201; N -0.166; L -0.057
N37: H -0.282; K 0.042; L -0.156; C -0.358; I -0.172; V -0.056; D -0.061; S -0.109; Y -0.595; P -0.847; T 0.111; G -0.126; Q -0.137; W -0.569; A -0.02; R -0.12; F -0.308; M -0.202
